Measured values as given in patent US9289507B2, “Carriers for improved drug delivery” (Extend Biosciences, Inc., priority 2012, dated 2016).
Where two headings read alike, the source gives them in different places.

Key:
[1] = parameters: species or system Sprague Dawley rats; conditions: rat, in vivo, sc, 1 mg/kg
Experimental: Infliximab, sold as a lyophilized powder with the appropriate salts (Hannah Pharmaceuticals), was resuspended to a concentration of 10 mg/mL with water. The Vitamin D3-PEG-NHS carrier was resuspended at a concentration of 10 mg/mL in DMSO. The Vitamin D3-PEG-NHS carrier and the infliximab were then mixed at a molar ratio of 5:1 and 10:1 carrier to infliximab. […] By using an NHS version of the carrier, more than one carrier can be attached to a therapeutic protein and this can be experimentally controlled by altering the molar ratio of carrier to target therapeutic in the reaction. In this example, a target distribution of 2-4 carriers was set as a desired parameter.
The dose was 1 mg/kg in all test groups with three rats per group. Serum samples were collected pre-dosing and at various times from 5 min to 48 hrs post injection. Serum samples were then analyzed by ELISA using an ELISA kit specific for determining the levels of infliximab in serum (Promonitor™, Progenika™). Pharmacokinetic parameters were determined using WinNonLin.

[2] = 1 mg/kg, cited from earlier work
[3] = FGF21 in its natural state; cited from earlier work

| Molecule | serum concentration at 24 hr [1] | serum concentration at 48 hr [1] | Cmax ([2]; intravenous route) | Cmax ([2]; subcutaneous route) | half-life in serum [3] |
| --- | --- | --- | --- | --- | --- |
| infliximab: Monoclonal antibody that binds tumor necrosis factor alpha (TNF-α) [reference compound] | 2100 ng/mL | 4800 ng/mL | – | – | – |
| FGF21: Fibroblast growth factor 21 in its natural state (SEQ ID:2), literature values (protein, listed as Homo sapiens) HPIPDSSPLLQFGGQVRQRYLYTDDAQQTEAHLEIREDGTVGGAADQSPESLLQLKALKPGVIQILGVKTSRFLCQRPDGALYGSLHFDPEACSFRELLLEDGYNVYQSEAHGLPLHLPGNKSPHRDPAPRGPARFLPLPGLPPALPEPPGILAPQPPDVGSSDPLSMVGPSQGRSPSYAS | – | – | 1890 nM | 73 nM | 1.1 h |
